B1: humanised 39-15 mAb 4-1:5-51 (antibody, human IgG1, kappa, V domains shown)
VH: EVQLVQSGAEVKKPGESLKISCKGSGYSFTTYWIHWVRQMPGKGLEWMGAIYPGDGDTRYTQNFKDQVTISADKSISTAYLQWSSLKASDTAMYYCAREGTPPFTTATFAMAYWGQGTLVTVSS
VL: DIVMTQSPDSLAVSLGERATINCKSSQSLLYSRTRKNYLAWYQQKPGQPPKLLIYWASTRQSGVPDRFSGSGSGTDFTLTISSLQAEDVAVYYCKQSYNLFTFGQGTKLEIKR
notes: human IgG1 kappa
B2: humanised 39-15 mAb 1-39:1-3 (antibody, V domains shown)
VH: QVQLVQSGAEVKKPGASVKVSCKASGYTFTTYWIHWVRQAPGQRLEWMGAIYPGDGDTRYTQNFKDRVTITRDTSASTAYMELSSLRSEDMAVYYCAREGTPPFTTATFAMAYWGQGTLVTVSS
VL: DIQMTQSPSSLSASVGDRVTITCKSSQSLLYSRTRKNYLAWYQQKPGKAPKLLIYWASTRQSGVPSRFSGSGSGTDFTLTISSLQPEDFATYYCKQSYNLFTFGQGTKLEIKR
B3: humanised 39-15 mAb 4-1:1-8 (antibody, V domains shown)
VH: B2 VH with P41T, R44G, I70M, D73N, A76I, M91T
VL: B1 VL
B4: humanised 39-15 mAb 4-1:1-3 (antibody, human IgG1, kappa, V domains shown)
VH: B2 VH
VL: B1 VL
notes: human IgG1 kappa
B5: humanised 39-15 mAb 1-39:1-46 (antibody, V domains shown)
VH: B2 VH with R44G, I70M, A76T, A79V, M91T
VL: B2 VL
B6: humanised 39-15 mAb 4-1:1-46 (antibody, human IgG1, V domains shown)
VH: B2 VH with R44G, I70M, A76T, A79V, M91T
VL: B1 VL
notes: human IgG1 kappa
B7: DMS5056 (chimeric MLC mAb-cKIT dAb, DOM28m-107) (bispecific antibody)
heavy: not shown
light: DIVMSQSPSSLAVSAGDKVTMSCKSSQSLLYSRTRKNYLAWYQQKPGQSPKLLIYWASTRQSGVPDRFTGSGSGTDFTLTISSVQAEDLAVYYCKQSYNLFTFGSGTKLEIKRTVAAPSVFIFPPSDEQLKSGTASVVCLLNNFYPREAKVQWKVDNALQSGNSQESVTEQDSKDSTYSLSSTLTLSKADYEKHKVYACEVTHQGLSSPVTKSFNRGEC
B8: DMS5058 (chimeric MLC mAb-cKIT dAb, DOM28m-112) (bispecific antibody)
heavy: not shown
light: B7 light
B9: DMS5052 (chimeric MLC mAb-cKIT dAb, DOM28m-007) (bispecific antibody)
heavy (part 1 of 2): QVQLQQSGAELASPGASVKLSCKASGYTFTTYWIHWVKQRPGQGLEWIGAIYPGDGDTRYTQNFKDKATLTADSSSSTAYMQLSSLASEDSAVFYCAREGTPPFTTATFAMAYWGQGTSVTVSS
heavy (part 2 of 2): STGEVQLLESGGGLVQPGGSLRLSCAASGFTFSNYAMGWVRQAPGKGLEWVSSISSSGFATYYADSVKGRFTISRDNSKNTLYLQMNSLRAEDTAVYYCAKSESRTFKAFDYWGQGTLVTVSS
light: DIVMSQSPSSLAVSAGDKVTMSCKSSQSLLYSRTRKNYLAWYQQKPGQSPKLLIYWASTRQSGVPDRFTGSGSGTDFTLTISSVQAEDLAVYYCKQSYNLFTFGSGTKLEIKR
notes: not shown: human IgG1 CH1-CH2-CH3
B10: DOM28h-66 (other)
chain: EVQLLESGGGLVQPGGSLRLSCAASGFTFPLYEMHWVRQAPGKGLEWVSRISPTGATTYYADSVKGRFTISRDNSKNTLYLQMNSLRAEDTAVYYCAKDRRGRAGVTFDYWGQGTLVTVSS
notes: dAb, C-terminal FLAG tag (pDOM10); also called DOM28h-066
B11: DOM28h-110 (other)
chain: EVQLLESGGGLVQPGGSLRLSCAASGFTFRKYAMMWVRQAPGKGLEWVSTITASGGGTYYADSVKGRFTISRDNSKNTLYLQMNSLRAEDTAVYYCAKPLNQYATQFDYWGQGTLVTVSS
notes: dAb, C-terminal FLAG tag (pDOM10)
B12: DOM28h-78 (other)
chain: EVQLLESGGGLVQPGGSLRLSCAASGFTFEHYPMGWVRQAPGKGLEWVSHISYDGTDTYYADSVKGRFTISRDNSKNTLYLQMNSLRAEDTAVYYCAKFHNQWDIYSFDYWGQGTLVTVSS
notes: as for B11
B13: DOM28h-20 (other)
chain: DIQMTQSPSSLSASVGDRVTITCRASRSISDELTWYQQKPGKAPKLLISWGSSLQSGVPSRFSGSGSGTDFTLTISSLQPEDFATYYCLQTWELPVTFGQGTKVEIKR
notes: as for B11
B14: DOM28h-79 (other)
chain: EVQLLESGGGLVQPGGSLRLSCAASGFTFKNYDMSWVRQAPGKGLEWVSGIWDDGWATYYADSVKGRFTISRDNSKNTLYLQMNSLRAEDTAVYYCAKGAATPGQTIFDYWGQGTLVTVSS
notes: as for B11
B15: DOM28h-73 (other)
chain: EVQLLESGGGLVQPGGSLRLSCAASGFTFDDYWMQWVRQAPGKGLEWVSSISDEGARTYYADSVKGRFTISRDNSKNTLYLQMNSLRAEDTAVYYCAEYPGLAHFGEDFDYWGQGTLVTVSS
notes: as for B11
B16: DOM28h-54 (other)
chain: EVQLLESGGGLVQPGGSLRLSCAASGFTFESYDMSWVRQAPGKGLEWVSGIYPDGGATYYADSVKGRFTISRDNSKNTLYLQMNSLRAEDTAVYYCAKGEPNLFDYWGQGTLVTVSS
notes: as for B11
B17: DOM28h-7 (other)
chain: DIQMTQSPSSLSASVGDRVTITCRASSNIDDDLGWYQQKPGKAPKLLIGWSSDLQSGVPSRFSGSGSGTDFTLTISSLQPEDFATYYCAQWWRGPATFGQGTKVEIKR
notes: as for B11
B18: DOM28h-26 (other)
chain: B17 chain with S27R, D32E, G34A, G49A, S51G, A89G, W91F, W92R, A96L
notes: as for B11

From US20120253017A1 (published 2012) come the findings set out here.

Positions count from the first letter of the chain named.

For orientation: Kd means the concentration at which binding is half-saturated. Broadly, the koff is the first-order rate constant of dissociation. Read a high koff as fast dissociation. As a reminder, the kon is the rate constant with which the complex forms.

Sequence of Myosin Light Chain (on streptavidin chip; vMLC1-sulfotag) (chain, as listed by the source): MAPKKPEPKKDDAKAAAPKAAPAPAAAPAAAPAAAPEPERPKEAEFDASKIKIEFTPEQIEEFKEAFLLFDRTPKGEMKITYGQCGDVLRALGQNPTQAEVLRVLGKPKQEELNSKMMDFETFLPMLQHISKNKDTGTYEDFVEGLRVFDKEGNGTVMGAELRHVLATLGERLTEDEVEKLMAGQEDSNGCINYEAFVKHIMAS

The target in the first experiment is T1, human ventricular myosin light chain 1, GlySer(His)6 tag (human, UniProt P08590 1-195, limits assumed).
T1 construct: also called human vMLC-1; vMLC1-6xHIS
T1 sequence (P08590 other isoform, or with tags, fused parts or gaps limits assumed): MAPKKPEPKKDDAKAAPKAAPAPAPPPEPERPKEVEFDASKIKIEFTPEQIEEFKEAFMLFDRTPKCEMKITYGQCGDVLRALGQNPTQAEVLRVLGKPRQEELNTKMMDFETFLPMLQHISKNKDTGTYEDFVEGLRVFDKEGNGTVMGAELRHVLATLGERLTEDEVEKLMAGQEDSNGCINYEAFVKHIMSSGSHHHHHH
Briefly: BIAcore, vMLC-1 immobilised. The method, then: (§1) Affinity of all 8 humanised mAbs was determined by BIAcore as described above.
In turn, B1 gave a Kd of 0.00169 nM, a koff of 2.65e-06 s⁻¹ and a kon of 1.57e+06 M⁻¹ s⁻¹.
Molecule B2 gave a dissociation rate constant (koff) of 2.17e-05 s⁻¹.
In turn, B3 returned a Kd of 0.0128 nM, an off-rate constant (koff) of 1.87e-05 s⁻¹ and a kon of 1.46e+06 M⁻¹ s⁻¹.
The like results for B4 were, in that order, 0.00825 nM, 1.52e-05 s⁻¹ and 1.84e+06 M⁻¹ s⁻¹.
B5: the off-rate (koff) is 3.41e-05 s⁻¹.
On to B6, for which the affinity, expressed as Kd, was 0.00818 nM; the koff came out at 1.63e-05 s⁻¹; the on-rate (kon) worked out at 1.99e+06 M⁻¹ s⁻¹.

In a further experiment the target is T2, mouse ventricular myosin light chain 1, GlySer(His)6 tag (mouse, UniProt P09542 1-204).
T2 construct: also called mouse vMLC-1
T2 sequence (P09542 other isoform, or with tags, fused parts or gaps): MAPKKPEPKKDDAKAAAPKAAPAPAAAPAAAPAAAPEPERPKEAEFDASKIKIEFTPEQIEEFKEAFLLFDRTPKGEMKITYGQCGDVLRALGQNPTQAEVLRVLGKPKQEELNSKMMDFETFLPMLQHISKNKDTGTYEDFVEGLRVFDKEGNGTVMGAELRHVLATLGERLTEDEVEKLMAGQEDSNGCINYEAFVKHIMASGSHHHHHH
Briefly: BIAcore, vMLC-1 immobilised. How it is done: as §1
(In general: SPR reads the build-up and loss of mass on a sensor chip optically.)
For B1, the Kd was 0.0153 nM, the koff came out at 2.16e-05 s⁻¹ and the kon was 1.42e+06 M⁻¹ s⁻¹.
B2 yielded a dissociation rate constant (koff) of 8.8e-05 s⁻¹.
Molecule B3 had a dissociation constant (Kd) of 0.0589 nM, an off-rate constant (koff) of 7.78e-05 s⁻¹ and an on-rate constant (kon) of 1.32e+06 M⁻¹ s⁻¹.
The like results for B4 were, in that order, 0.0396 nM, 6.6e-05 s⁻¹ and 1.67e+06 M⁻¹ s⁻¹.
As to B5, the dissociation rate constant (koff) came to 0.000122 s⁻¹.
For B6, the dissociation constant Kd was 0.0426 nM, the off-rate constant (koff) worked out at 7.65e-05 s⁻¹ and the kon was 1.79e+06 M⁻¹ s⁻¹.

Another experiment addresses Myosin Light Chain (on streptavidin chip; vMLC1-sulfotag). The experiment is described as follows: BIAcore, bad fit.
In the case of B7, binding was put at a Kd of 0.048 nM.
B8 yielded an equilibrium dissociation constant (Kd) of 0.042 nM.
On the same count and under the same terms, to B9 belongs 0.047 nM.

The target of the next experiment is T3, human c-kit (recombinant, on BIAcore chip or beads) (human, UniProt P10721 26-524).
T3 construct: extracellular domain; also called hcKIT; biotinylated human c-kit
T3 sequence (P10721 26-524): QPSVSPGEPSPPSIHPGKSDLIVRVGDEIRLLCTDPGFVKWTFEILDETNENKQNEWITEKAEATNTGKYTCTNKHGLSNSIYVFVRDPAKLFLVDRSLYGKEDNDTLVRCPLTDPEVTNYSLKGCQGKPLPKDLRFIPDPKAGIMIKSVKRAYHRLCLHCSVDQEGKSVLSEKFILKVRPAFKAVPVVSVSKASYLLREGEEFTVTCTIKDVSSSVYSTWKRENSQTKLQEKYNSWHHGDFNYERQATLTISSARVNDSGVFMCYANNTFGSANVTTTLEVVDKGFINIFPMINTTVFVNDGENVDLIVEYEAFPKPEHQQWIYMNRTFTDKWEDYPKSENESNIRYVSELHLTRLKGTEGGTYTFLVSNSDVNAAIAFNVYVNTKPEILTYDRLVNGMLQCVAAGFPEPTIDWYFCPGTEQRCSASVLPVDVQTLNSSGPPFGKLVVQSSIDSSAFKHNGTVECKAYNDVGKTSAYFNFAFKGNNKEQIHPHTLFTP
Briefly: BIAcore, dAb at 1000 and 500 nM. The method, then: Unique dAbs were expressed as bacterial supernatants in 2.5 L shake flasks in Onex media at 37° C. for 24 hrs at 250 rpm. dAbs were purified from the culture media by absorption to protein A or L agarose followed by elution with 10 mM glycine pH2.0.
As for B10, the equilibrium dissociation constant (Kd) stood at 2900 nM.
Same read-out and setting: to B11 belongs 3300 nM.

For the next experiment, the target named is T3, human c-kit (recombinant, on BIAcore …). Briefly: BIAcore, c-kit on SA chip. How it is done: All unique dAb clones were expressed in 50 ml cultures (OnEX plus carbenicillin) overnight at 37° C. and purified on protein A (VH dAbs) or protein L (VK dAbs). Purified dAbs were passed over a SA BIAcore chip coated with either human or mouse c-kit at 1 μM to identify those dAbs that bound specifically to either human or murine c-kit.
On to B12, for which the Kd came out at 233 nM.
On to B10, for which the Kd amounted to 2900 nM.
With B13, the Kd was found to be 1000 nM.
As for B14, the Kd turned out to be 218 nM.
Still for that read-out and setting: then B15, with 1300 nM; and B11, with 3300 nM; and B16, with 490 nM.
In the case of B17, the Kd is 1400 nM.
In the case of B18, the Kd came out at 621 nM.
